Like-named read-outs stand apart in the source and are kept apart here.
## Env (BG505.T332N): N197S and N197T
N-glycosylation at N195
  other: decreases

## Env (LAI): D113N
N-glycosylation at N113
  other: no change

## Env (LAI): N197S/T
N-glycosylation at N197
  other: no change

Source: PMC6435357
